Source: patent US20240124615A1 (HEFEI TG IMMUNOPHARMA, published 2024)
Where a chain is given by its changes, count along the chain named.

B1: CD3xB7H6-11 bispecific antibody (bispecific antibody, human IgG1, L234A L235A)
chain 1: not shown
chain 2: DIVLTQTPLSLSVTPGQPASISCKASQSVDYDGDSYMNWYLQKPGQPPQLLIYAASTLHSGVPDRFSGSGSGTDFTLKISRVEAEDVGVYYCQQSKEDPRTFGQGTKLEIKGGGGSGGGGSGGGGSEVQLVQSGAEVKKPGASVKVSCKASGYTFTDYNMDWVRQAPGQGLEWIGDINPNNGGTLYNQKFRGRVTLTVDKSISTAYMELSRLRSDDTAVYYCARSEVFYGNYADYWGQGTTVTVSSEPKSCDKTHTCPPCPAPEAAGGPSVFLFPPKPKDTLMISRTPEVTCVVVDVSHEDPEVKFNWYVDGVEVHNAKTKPREEQYNSTYRVVSVLTVLHQDWLNGKEYKCKVSNKALPAPIEKTISKAKGQPREPQVCTLPPSRDELTKNQVSLSCAVKGFYPSDIAVEWESNGQPENNYKTTPPVLDSDGSFFLVSKLTVDKSRWQQGNVFSCSVMHEALHNHYTQKSLSLSPGK
notes: Heterodimer of two scFv-Fc units, knob-into-hole human IgG1 Fc; name formed by analogy with CD3xB7H6-14
B2: CD3xB7H6-16 bispecific antibody (bispecific antibody, human IgG1, L234A L235A)
chain 1: not shown
chain 2: B1 chain 2 with V62I, Q169K
notes: as for B1
B3: CD3xB7H6-13 bispecific antibody (bispecific antibody, human IgG1, L234A L235A)
chain 1: not shown
chain 2: B1 chain 2 with V62I, I174M, L196M, K200T
notes: as for B1
B4: CD3xB7H6-12 bispecific antibody (bispecific antibody, human IgG1, L234A L235A)
chain 1: not shown
chain 2: B1 chain 2 with Q169K
notes: as for B1
B5: CD3xB7H6-14 bispecific antibody (bispecific antibody, human IgG1, L234A L235A)
chain 1: not shown
chain 2: B1 chain 2 with V62I, K200T
notes: Heterodimer of two scFv-Fc units, knob-into-hole human IgG1 Fc; lead molecule; also called CD3kB7H6-14
B6: CD3xB7H6-15 bispecific antibody (bispecific antibody, human IgG1, L234A L235A)
chain 1: not shown
chain 2: B1 chain 2 with V62I
notes: as for B1
B7: CD3xB7H6-17 bispecific antibody (bispecific antibody, human IgG1, L234A L235A)
chain 1: not shown
chain 2: DIVLTQSPVSLAVPLGQRATISCKASQSVDYDGDSYMNWYQQKPGQPPKLLIYAASTLHSGIPVRFSGSGSGTDFTLNIHPVEEEDAASYYCQQSKEDPRTFGGGTKLEIKGGGGSGGGGSGGGGSEVLLQQSGPEVVKPGASVKITCKASGYTFTDYNMDWVKQSHGKSLEWIGDINPNNAGTLYNQKFRGRVTLIVDKSSSTAYMELRSLTSDDTAVYYCARSEVFYGNYADYWGQGTTLTVSSEPKSCDKTHTCPPCPAPEAAGGPSVFLFPPKPKDTLMISRTPEVTCVVVDVSHEDPEVKFNWYVDGVEVHNAKTKPREEQYNSTYRVVSVLTVLHQDWLNGKEYKCKVSNKALPAPIEKTISKAKGQPREPQVCTLPPSRDELTKNQVSLSCAVKGFYPSDIAVEWESNGQPENNYKTTPPVLDSDGSFFLVSKLTVDKSRWQQGNVFSCSVMHEALHNHYTQKSLSLSPGK
notes: as for B1
B8: CD3xB7H6-18 bispecific antibody (bispecific antibody, human IgG1, L234A L235A)
chain 1: not shown
chain 2: B7 chain 2 with G33A, A182G
notes: as for B1

Molecular target: T1, Human B7H6 (ACRO biosystems, cat. No. B76-H52H8) (human, UniProt Q68D85 25-262)
T1 construct: Bought antigen; also called B7H6 antigen; human B7H6 protein
T1 sequence (looked up): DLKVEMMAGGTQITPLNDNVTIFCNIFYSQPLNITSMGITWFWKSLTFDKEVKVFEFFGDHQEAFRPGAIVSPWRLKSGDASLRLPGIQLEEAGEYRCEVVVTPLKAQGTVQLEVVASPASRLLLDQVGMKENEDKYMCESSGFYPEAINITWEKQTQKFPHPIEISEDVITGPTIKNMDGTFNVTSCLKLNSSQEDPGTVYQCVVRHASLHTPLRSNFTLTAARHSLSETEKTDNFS
Test: ELISA, B7H6 coated, HRP anti-human IgG detection
Description: Human B7H6 (ACRO biosystems, cat. No. B76-H52H8) and human CD3 antigen (ACRO biosystems, cat. No. CDD-H52W1) were diluted to 2 μg/mL with coating buffer (35 mM NaHCO₃, 15 mM Na₂CO₃, pH 9.6), respectively. 100 μL of the diluted solution was added to each well of an ELISA plate at 4° C. overnight, and then washes with PBST (0.05% Tween 20-PBS, pH 7.2) 3 times. 300 μL of blocking buffer (1% BSA, 0.05% Tween20-PBS, pH 7.2) was added to the plate and allowed to stand at room temperature for 2 h, followed by washing with PBST three times. The corresponding bispecific antibody was added to each well and incubated at room temperature for 1 h, followed by washing with PBST three times. 100 μL of HRP-rabbit anti human IgG secondary antibody (Boster, cat. No. BA1070) diluted in blocking buffer was added to each well and incubated for 1 h at room temperature, followed by washing with PBST three times. TMB was added into each well. The plate was kept away from light at room temperature for 2-5 min, the reaction was stopped by adding 2 M sulfuric acid in each well, and finally OD450 values were read with microplate reader.

Binder	binding result
B1	binds
B2	binds
B3	binds
B4	binds
B5	binds
B6	binds
B7	binds
B8	binds
